Laboratory results reported in patent US20170281796A1, “c-Met Antibody Drug Conjugate” (Sorrento Therapeutics, Inc., priority 2014, published 2017).

Test system: MDA-MB468
Assay: internalization of anti c-Met antibody in triple negative breast cancer cell line
Assay type: cell-based
Conditions: 1 μg/ml antibody, 180 min at 37° C.; FIG. 8
Method: Internalization of anti c-Met antibody IgG1 H8-A2 (also called STI-0602 SEQ ID NO. 25/SEQ ID NO. 26) in MDA-MB468. MDA-MB468 were plated overnight and incubated with 1 μg/ml anti-C-Met H8A2 antibody for 180 min at 37° C. Cells were stained with anti-AF488.

B1: H8-A2: anti c-Met antibody IgG1, heavy chain SEQ ID NO. 25 / light chain SEQ ID NO. 26 (antibody, V domains shown)
VH: EVQLVQSGAEVKKPGASVKVSCKASGYTFYSEYMHWVRQAPGQGLEWMGWINPNSGNTGVAPKFQGRVTMTRNTSISTAYMELSSLRSEDTAVYYCARRGTTVSFDTWGQGTLVTVSS
VL: QLVLTQSPSVSVAPGQRVTISCSGSNSNIGNNYVSWYHHLPGTAPKLLIYDNNKRPSGIPDRFSGSKSGTSATLGITGLQPGDEAHYYCGTWDSTLSAWAFGGGTKLTVL
modifications: Homo sapians
- internalization: internalized
